Results taken from patent US20210214454A1 (SYMPHOGEN A S, published 2021).
Changes are numbered by the printed parent chain.

B1: antibody 15948 (antibody, human IgG1, kappa, L234A L235A, V domains shown)
VH: QVQLVESGGGVVQPGRSLRLSCAASGFTFSIYGMHWVRQAPGKGLEWVAVISYDGSNKYYADSVKGRFTISRDNSKNTLYLQMNSLRAEDTAVYYCAKDPDYYGSGSYYPDWGQGTLVTVSS
VL: DIQLTQSPSFLSASVGDRVTITCRASQGISSYLAWYQQKPGKAPKLLIYAASTLQSGVPSRFSGSGSGTEFTLTISSLQPEDFATYYCQQVKSYPLTFGGGTKVEIKR
notes: Fully human IgG1-LALA / kappa
B2: antibody 16040 (antibody, human IgG1, kappa, L234A L235A, V domains shown)
VH: QVQLVESGGGVVQPGRSLRLSCAASGFTFSIYGMHWVRQAPGKGLEWVAVISYDGSNKYYADSVKGRFTISRDNSKNTLYLQMNSLRAEDTAVYYCAAGNWFDPWGQGTLVTVSS
VL: B1 VL with V91L, K92N, S93R
notes: Fully human IgG1-LALA / kappa
B3: antibody 15833 (antibody, human IgG1, kappa, L234A L235A, V domains shown)
VH: QVQLVESGGGVVQPGRSLRLSCAASGFTFSNYAMHWVRQAPGKGLEWVALISFDGSYKYYADSVKGRFTISRDNSKNTLYLQMNSLRAEDTAVYYCVKDAGYSSSWFFDYWGQGTLVTVSS
VL: DIQMTQSPSSVSASVGDRVTITCRASQDISSWLAWYQQKPGKAPKLLIYAASSLQSGVPSRFSGSGSGTDFTLTISSLQPEDFGNYYCQQANSFPWTFGQGTKVEIKR
notes: Fully human IgG1-LALA / kappa
B4: antibody 17303 (antibody, human IgG1, kappa, L234A L235A, V domains shown)
VH: EVQLVESGGGLVQPGRSLRLSCAASGFTFDDHAMHWVRQAPGKGLEWVSGISWNSGSIGYAESVKGRFTISRDNAKNSLYLQMNSLRAEDTALYYCAKDRRGPFDYWGQGTLVTVSS
VL: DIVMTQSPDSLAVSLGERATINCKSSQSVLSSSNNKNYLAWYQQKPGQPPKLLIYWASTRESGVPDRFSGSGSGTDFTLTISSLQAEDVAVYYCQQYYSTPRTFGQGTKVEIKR
notes: Fully human IgG1-LALA / kappa
B5: antibody 15888 (antibody, human IgG1, kappa, L234A L235A, V domains shown)
VH: QVQLQQSGPGLVKPSQTLSLTCAISGDSVSSNSATWNWIRQSPSRGLEWLGRTYYRSKWYNDYAVSVKSRITINPDTSKNQFSLQLNSVTPEDTAVYYCARGGHSIAVAGPFDYWGQGTLVTVSS
VL: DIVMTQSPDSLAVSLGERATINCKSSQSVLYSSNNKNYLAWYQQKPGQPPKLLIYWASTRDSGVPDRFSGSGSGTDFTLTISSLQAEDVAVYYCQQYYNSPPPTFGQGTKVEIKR
notes: Fully human IgG1-LALA / kappa
B6: antibody 16154 (antibody, human IgG1, kappa, L234A L235A, V domains shown)
VH: EVQLVESGGGLVQPGGSLRLSCAASGFTFTSYWMSWVRQAPGKGLEWVANIKQDGSEKYYVDSVKGRFTISRDNAKNSLYLQMNSLRAEDTAVYYCARGPVAGPYWYFDLWGRGTLVTVSS
VL: AIQMTQSPSSLSASVGDRVTITCRASQGIRNDLGWYQQKPGKAPKLLIYAASSLQSGVPSRFSGSGSGTDFTLTISSLQPEDFATYYCLQDYHYPLTFGGGTKVEIKR
notes: Fully human IgG1-LALA / kappa

target: T1, cynomolgus CD40 extracellular domain (ECD) (cynomolgus); assay: SPR (IBIS MX96), antibody captured, monovalent CD40 ECD in solution
T1 construct: extracellular domain; also called Cynomolgus CD40 ECD

Row | Kd | koff | kon | Binder
1 | 57 nM | 0.0021 s⁻¹ | 37000 M⁻¹ s⁻¹ | B1
2 | 16 nM | 0.0013 s⁻¹ | 81000 M⁻¹ s⁻¹ | B2
3 | 1.5 nM | 0.00012 s⁻¹ | 80000 M⁻¹ s⁻¹ | B3
4 | 9.8 nM | 0.0014 s⁻¹ | 150000 M⁻¹ s⁻¹ | B4
5 | 0.44 nM | 0.00014 s⁻¹ | 330000 M⁻¹ s⁻¹ | B5
6 | 4.6 nM | 0.00051 s⁻¹ | 110000 M⁻¹ s⁻¹ | B6

target: T2, His-tagged human CD40 extracellular domain (ECD) (human, UniProt P25942 21-193); assay: as above
T2 construct: Bought from Sino Biological; also called human CD40 ECD; CD40-his ECD antigen; not shown: His tag
T2 sequence (P25942 21-193): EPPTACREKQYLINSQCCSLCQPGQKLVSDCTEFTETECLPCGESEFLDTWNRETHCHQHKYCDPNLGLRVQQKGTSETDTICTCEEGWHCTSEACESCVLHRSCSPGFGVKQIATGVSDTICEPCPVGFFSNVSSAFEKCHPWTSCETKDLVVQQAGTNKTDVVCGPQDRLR

Row | Kd | koff | kon | Binder
7 | 3.1 nM | 0.00031 s⁻¹ | 99000 M⁻¹ s⁻¹ | B1
8 | 7 nM | 0.00036 s⁻¹ | 52000 M⁻¹ s⁻¹ | B2
9 | 2.8 nM | 0.00012 s⁻¹ | 41000 M⁻¹ s⁻¹ | B3
10 | 7.8 nM | 0.00038 s⁻¹ | 49000 M⁻¹ s⁻¹ | B4
11 | 0.75 nM | 0.00014 s⁻¹ | 190000 M⁻¹ s⁻¹ | B5
12 | 5.7 nM | 0.00031 s⁻¹ | 53000 M⁻¹ s⁻¹ | B6

target: T3, human CD40 protein expressed on cells (human, UniProt P25942 21-277); assay: flow cytometry on CHO-S cells transiently expressing human CD40; AF647 anti-human IgG (H+L) secondary; GeoMean RL1-H
T3 construct: also called human CD40 on CHO-S cells; CD40 of CD40-NFkB-luciferase reporter cells (Promega CD40 Bioassay kit)
Experimental: (§1) The anti-CD40 antibodies were incubated with hamster CHO-S cells transiently expressing human or cynomolgus CD40 for 30 minutes at 4° C. The cells were washed twice and subsequently incubated for an additional 20 minutes with AF647-conjugated secondary anti-human IgG (H+L) antibody. After the washing step, antibody binding was detected using the high-throughput flow cytometer iQue Screener PLUS (Sartorius) measuring the GeoMean of AF647 signal in each well. Every concentration was assayed in triplicate and a 12-point titration curve was generated for each antibody.

T3 sequence (P25942 21-277 limits assumed): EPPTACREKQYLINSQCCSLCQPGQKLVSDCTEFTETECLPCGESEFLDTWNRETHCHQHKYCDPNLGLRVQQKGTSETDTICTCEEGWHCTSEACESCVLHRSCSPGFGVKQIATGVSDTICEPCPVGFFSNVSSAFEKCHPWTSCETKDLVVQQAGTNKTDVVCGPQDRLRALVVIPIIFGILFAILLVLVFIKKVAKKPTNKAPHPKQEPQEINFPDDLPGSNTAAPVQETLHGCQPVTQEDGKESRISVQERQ

Row | EC50 (read off the curve) | Binder
13 | ~0.1 µg/mL | B3
14 | ~0.008 µg/mL | B6

target: T4, cynomolgus CD40 protein expressed on CHO-S cells (cynomolgus, UniProt G7PG38 21-278); assay: flow cytometry on CHO-S cells transiently expressing cynomolgus CD40; AF647 anti-human IgG (H+L) secondary; GeoMean RL1-H
T4 construct: whole, on cells
Experimental: as §1

Row | EC50 (read off the curve) | Binder
15 | ~0.4 µg/mL | B1
16 | ~0.2 µg/mL | B3
17 | ~0.02 µg/mL | B4
18 | ~0.02 µg/mL | B5
19 | ~0.008 µg/mL | B6
